Assays:
[1] = target: T1, PKA (catalytic subunit from bovine heart) (Bos taurus, UniProt P00517); experiment: In vitro kinase assay, phosphorylation of BAD and BAD mutants by PKA; format: biochemical; conditions: for in vitro phosphorylation by PKA: purified GST-tagged polypeptides, gamma-32P-ATP, autoradiography
T1 construct: 11 units PKA (catalytic subunit from bovine heart, Calbiochem); purchased Calbiochem; host or cells: bovine heart
Description: The ability of full-length BAD and mutant BAD S155A to bind Bcl-XL was also determined (FIG. 3(c)). Full-length BAD (“WT”) and mutant BAD S155A (“S155A”) were produced by in vitro translation and labeled with ^35S-methionine therein. The labeled proteins were then incubated with PKA (“+”) in the presence of unlabeled ATP or a buffer control (“−”). Following the kinase reactions, aliquots of each sample of the four samples were incubated with either GST or GST-Bcl-XL. The protein complex were captured on glutathione-agarose beads. Proteins bound to the beads (“Bound”) (lower panel) and samples of the reactions collected prior to incubation with the beads (“Total”) (upper panel) were analyzed by SDS-PAGE followed by autoradiography.
The GST-tagged BAD and BAD mutants were then expressed individually in cells and the purified GST-tagged polypeptides incubated with purified PKA, in the presence of ^32P radiolabel. A western blot, probed with anti-BAD antibody, was performed on the incubated GST-tagged BAD and BAD mutants to determine whether PKA could phosphorylate the BAD and/or mutant BAD in vitro. The GST-tagged BAD and BAD mutants phosphorylated by PKA could be detected directly by autoradiography due to the incorporation of ^32P radiolabel when the polypeptides were phosphorylated (FIG. 4, upper panel), whereas the total amount of BAD and mutant BAD present in the in vitro reaction was detected by the anti-BAD antibody probe (FIG. 4, lower panel).
In vitro kinase assays were carried out in 30 μl volumes containing 10 mM HEPES buffer, pH 7.5, 100 mM NaCl, 12 mM MgCl2, 1 mM dithiothreitol, […] γ^32P-ATP ([…], NEN), 11 units PKA (catalytic subunit from bovine heart, Calbiochem), and 1 μg purified GST-BAD. Reactions were incubated for 30 min at 30° C. and terminated by the addition of SDS-PAGE sample buffer. Samples were run on a 4–20% SDS-PAGE gel (Novex), transferred to a nitrocellulose membrane and phosphorylated GST-BAD was visualized by autoradiography. To verify that equal amounts of GST-BAD substrates were used, the nitrocellulose was subjected to western blot analysis with 133 ng/ml anti-BAD antibody (C-20).

[2] = system: BAD Ser155 phosphorylation in HeLa cells; experiment: BAD phosphorylation in HeLa cells (western blot band-shift / anti-phospho-Ser155 antibody); format: cell-based, human
Description: A mammalian expression vector encoding mutant HA-BAD S155A, derived from the shorter murine BAD of SEQ ID NO:3, was constructed. HA-BAD S155A has an amino acid sequence wherein the serine at a position corresponding to Ser155 is substituted with alanine. A western blot was performed on WCL prepared from cells expressing the shorter murine BAD (SEQ ID NO:3), HA-BAD S112A, HA-BAD S136A, or HA-BAD S155A, and probed with anti-HA antibody.
A western blot analysis, probed with anti-HA antibody, was performed on lysates produced from the Forskolin treated and untreated (control) cells to determine whether Forskolin could induce the phosphorylation BAD or mutant BAD.
HeLa cells transiently expressing HA-BAD, HA-BAD S155A, HA-BAD S112A/S136A, or HA-BAD S112A/S136A/S155A were treated with Forskolin or a buffer control.
The HA-BAD S112A/S136A double mutant was transiently expressed in HeLa cells, and transfected cell cultures were treated with each of the GPCR ligands, individually and as a group. A western blot analysis, probed with anti-HA antibody, was performed on lysates produced from the treated and untreated (negative control) cells. […] Forskolin (FK) and no treatment (−) were positive and negative controls, respectively (FIG. 6(a), […], respectively).
Non-transfected HeLa cells were treated with Forskolin or L-epinephrine, followed by western blot analysis of cell lysates using anti-BAD antibodies.
Transformants were treated with L-epinephrine, then lysed and subjected to anti-HA western blot analysis.
To further test whether phosphorylation of Ser155 is dependent on the PI 3-kinase/Akt pathway, HeLa cells were transfected with the mutant HA-BAD S155A and pretreated with Wortmannin, an inhibitor of PI 3-kinase. These cells were then stimulated with epidermal growth factor (EGF), lysed and analyzed by western blot analysis.
For immunoprecipitation of all HA-BAD species, 1 μg of the anti-HA antibody was added to the cell lysates, and incubated at 4° C. for one hour. Protein G agarose (Pierce) was then added (50 μl/fraction of 50% slurry) and followed by a one hour incubation at 4° C. Beads were washed with RIPA buffer, boiled in loading buffer (2% SDS, 10% glycerol, 5% β-ME, 60 mM Tris, pH 6.8, 0.002% Bromophenol Blue) and loaded onto polyacrylamide gels. After electrophoresis, proteins were transferred to nitrocellulose membranes, and blots blocked in western wash buffer (40 mM Tris, pH 8.0, 150 mM NaCl, 0.2% NP-40) with 5% BSA for one hour at room temperature. Blots were incubated with primary antibody diluted in western wash buffer with 3% BSA at room temperature for 1–2 hours, washed with western wash buffer and incubated with secondary HRP-coupled antibody diluted in western wash buffer with 1.5% BSA, and washed extensively. Polypeptides were detected with the ECL chemiluminescence according to the manufacturers instructions (Amersham).

B1: BAD S155A: mutant of shorter murine BAD, serine corresponding to Ser155 substituted with alanine; HA- or GST-tagged (protein)
chain: MFQIPEFEPSEQEDASATDRGLGPSLTEDQPGPYLAPGLLGSNIHQQGRAATNSHHGGAGAMETRSRHSSYPAGTEEDEGMEEELSPFRGRSRSAPPNLWAAQRYGRELRRMADEFEGSFKGLPRPKSAGTATQMRQSAGWTRIIQSWWDRNLGKGGSTPSQ
modifications: left off: small tags and cut ends
notes: mutant of shorter murine BAD, serine corresponding to Ser155 substituted with alanine; HA- or GST-tagged
- reduction of PKA catalyzed 32P-ATP incorporation ([1]; compared to the wild-type mammalian BAD substrate): more than 90%
- in vitro phosphorylation by PKA [1]: low, but detectable level
- in vitro phosphorylation by PKA ([1]; listed as GST-BAD S155A): dramatically reduced the phosphorylation
- band-shift (phosphorylation) of expressed BAD construct in response to L-epinephrine ([2]; HeLa cells): significantly reduced
- reactivity with anti-phospho-Ser155 specific BAD antibody ([2]; HeLa cells treated with Forskolin): failure of the anti-phospho-Ser155 specific BAD antibody to react
- growth factor (EGF)- and serum (FCS)-induced phosphorylation of expressed BAD mutant ([2]; HeLa cells, anti-HA western blot): dramatically reduced
- phosphorylation of expressed BAD mutant ([2]; HeLa cells, anti-HA western blot, compared to single mutation of Ser112 or Ser136): dramatically reduced the phosphorylation of the murine BAD in HeLa cells
- band-shift (phosphorylation) of expressed BAD construct in response to L-epinephrine ([2]; HeLa cells, listed as HA-BAD S155A): limited response

From patent US7193044B1, “Compounds and methods for regulating apoptosis, and methods of making and screening for compounds that regulate apoptosis” (Immunogen, Inc., priority 2000, dated 2007)
